Article PMC8012516, “Antimicrobial peptide DP7 with potential activity against SARS coronavirus infections” (Signal Transduction and Targeted Therapy, 2021)

Legend:
[1] = target: angiotensin-converting enzyme 2 (UniProt Q9BYF1 18-805); assay: SPR; Biacore; who was immobilised and the conditions are not given; details: both partners purified
[2] = target: T1, S-receptor-binding domain (RBD)-Fc of SARS-CoV-2 (SARS-CoV-2, UniProt P0DTC2); assay: SPR; details: both partners purified
T1 construct: also called S-RBD-Fc of SARS-CoV-2; S-RBD-Fc

Sequence of angiotensin-converting enzyme 2 (Q9BYF1 18-805): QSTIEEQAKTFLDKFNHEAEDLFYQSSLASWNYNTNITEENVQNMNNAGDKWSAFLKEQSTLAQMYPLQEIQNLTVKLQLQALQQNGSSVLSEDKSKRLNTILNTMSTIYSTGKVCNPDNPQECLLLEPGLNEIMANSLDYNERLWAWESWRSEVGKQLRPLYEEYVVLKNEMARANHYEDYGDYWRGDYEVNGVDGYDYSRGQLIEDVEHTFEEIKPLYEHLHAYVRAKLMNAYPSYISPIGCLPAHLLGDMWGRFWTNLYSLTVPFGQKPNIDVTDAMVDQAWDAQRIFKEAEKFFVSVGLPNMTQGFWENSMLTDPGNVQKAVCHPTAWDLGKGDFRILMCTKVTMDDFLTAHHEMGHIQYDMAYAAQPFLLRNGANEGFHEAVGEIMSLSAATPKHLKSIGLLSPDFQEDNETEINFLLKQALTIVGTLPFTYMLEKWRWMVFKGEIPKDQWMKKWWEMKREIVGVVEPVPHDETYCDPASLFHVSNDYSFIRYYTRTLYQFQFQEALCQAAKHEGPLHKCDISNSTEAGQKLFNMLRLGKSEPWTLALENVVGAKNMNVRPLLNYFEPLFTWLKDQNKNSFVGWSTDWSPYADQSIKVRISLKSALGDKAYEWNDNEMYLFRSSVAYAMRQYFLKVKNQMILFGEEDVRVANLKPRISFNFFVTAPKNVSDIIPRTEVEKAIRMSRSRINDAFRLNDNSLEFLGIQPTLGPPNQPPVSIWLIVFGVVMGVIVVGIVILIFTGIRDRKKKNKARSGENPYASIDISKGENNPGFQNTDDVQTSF

VQWRIRVAVIRK (also called antimicrobial peptide DP7) [antibacterial peptide DP7]
Kd [1]: 227 nM
Kd [2]: 51.9 nM
